In PMC2706497:

Substrate: NCCCCc1ccccc1
Experiment: steady-state kinetics
Type: biochemical, Homo sapiens
Conditions: FAD (covalent)

B1: MAO-B (Homo sapiens) (protein)
chain: SNKCDVVVVGGGISGMAAAKLLHDSGLNVVVLEARDRVGGRTYTLRNQKVKYVDLGGSYVGPTQNRILRLAKELGLETYKVNEVERLIHHVKGKSYPFRGPFPPVWNPITYLDHNNFWRTMDDMGREIPSDAPWKAPLAEEWDNMTMKELLDKLCWTESAKQLATLFVNLCVTAETHEVSALWFLWYVKQCGGTTRIISTTNGGQERKFVGGSGQVSERIMDLLGDRVKLERPVIYIDQTRENVLVETLNHEMYEAKYVISAIPPTLGMKIHFNPPLPMMRNQMITRVPLGSVIKCIVYYKEPFWRKKDYCGTMIIDGEEAPVAYTLDDTKPEGNYAAIMGFILAHKARKLARLTKEERLKKLCELYAKVLGSLEALEPVHYEEKNWCEEQYSGGCYTTYFPPGILTQYGRVLRQPVDRIYFAGTETATHWSGYMEGAVEAGERAAREILHAMGKIPEDEIWQSEPESVDVPAQPITTTFLERHLPSVPGLLRLIGLTTIFSATALGFLAHKRGLLVRV
Which Km does the source give for B1 here?
The Km was 19 ± 3 µM.
